Data reported in the supplement of paper PMC9170038.

Columns and labels:
MS2 coat protein [1] = assay: apparent KD of MS2 coat protein; designed switch direction (-1 OFF switch, 1 ON switch): -1; higher = weaker reporter binding; conditions: Eterna round: R98
Protocol: (§1)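 RNA-MaP: designed FMN/MS2 RNA switches (84 nt design region) are transcribed on-chip within common flanks and titrated with SNAP-549-labelled MS2 coat protein (about 1-3000 nM) in 100 mM Tris pH 7.5, 80 mM KCl, 4 mM MgCl2, without or with 200 uM FMN. Median apparent KD per design; activation ratio = KD,OFF / KD,ON.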

MS2 coat protein [2] = assay: apparent KD of MS2 coat protein; higher = weaker reporter binding; conditions: Eterna round: R101
Protocol: as §1

Sequence | apparent KD of MS2 coat protein (MS2 coat protein [1]; input ligand: FMN 200 uM) [nM] | apparent KD of MS2 coat protein (MS2 coat protein [1]; input ligand: none) [nM] | apparent KD of MS2 coat protein (MS2 coat protein [2]; input ligand: FMN 200 uM) [nM] | apparent KD of MS2 coat protein (MS2 coat protein [2]; input ligand: none) [nM]
UGGUAUAAGGGCAUUACACAUGAGGAUCACCCAUGUACGUUAGAGGAUAUGCAUUCCAGUCGAACGUAGAAGGUUAGAGAAGGG [Morebubblesahh#8abcdefghij] | 150 | 113 |  | 
CCAUAAAAGAUCCAAAAUUACAACAUGAGGAUCACCCAUGUGCAGGAUAUCGUGAAAGUAAAAUACGAGAAGGGCAAGAACUGC [salish99_ExNG3_r2_004] | 425 | 430 |  | 
AGACCUGCUCAGAAGGCGGAUACGAGGCUGGAAACAGCCUCGUAAUUAAAUCUUCGAGGAUCACCCGAGGAUAUGAGCAGGUCA [#SharedSequence - IExNG2: 13] (puzzle (switch architecture): Inverted Exclusion NG 2) |  |  | 28.4 | 10.3
UUCUGUGCCCAAAGUUUAAGCACAUGAGGAUCACCCAUGUGAAAGGAUAUGUGGCAUGUAAUGUUAUAGAAGGUUCACAAUCAA [Esadi] | 23.9 | 15.8 |  | 
CCUGCACUUCAAGGAUAUCCAGUCGUUUCGACUGGAGAAGGUGAGGAUCACCCACCUAGCCUGACGUUUGUCAGGCAUGCAGGU [#AddUracilToBrourdLoops 3 - Jieux - Exclusion NG1] (puzzle (switch architecture): Exclusion NG 1) |  |  | 8.78 | 8.76
AAAGAUUUUUAAGGAUAUGACUCCGAAACGGAGUCAGAAGGUGAGGAUCACCCACCUAGCUCAGGGUCGAAAGACCCUGAGCAA [#SharedSequence - ExNG1-13] (puzzle (switch architecture): Exclusion NG 1) |  |  | 9.48 | 9.02
UCAUAAUAGAUCCUAUUUAUCUACAUGAGGAUCACCCAUGUGCAGGAUAUGCUAAAAUUAAAAUAGCAGAAGGGCAAUUUCAGC [JR_ExcNG3_Sub013] | 359 | 94.3 |  | 
